What all share (type): biochemical
The test system of one data set is Pro-Phe-Arg-MCA. Description: Activity assay of EP proteases and EP-treated hK8 samples with Pro-Phe-Arg-MCA (FIG. 4B middle). The method, then:
(A) A recombinant fusion protein of Medaka gelatinase A (5 μg) was separately incubated with active EP proteases (100 ng) at 37° C. for 1 h, and analyzed by SDS-PAGE. (B) A recombinant fusion protein of human kallikrein 8 (hK8) (5 μg) was incubated with active EP proteases (100 ng) at 37° C. for 2 h. After incubation, the samples were analyzed by SDS-PAGE (upper panel), or assayed for activity with Pro-Phe-Arg-MCA (middle panel), or Boc-Glu(OBzl)-Ala-Arg-MCA (lower panel). […] The samples were then analyzed by SDS-PAGE/Western blotting using anti-human tPA antibody (upper panel) or anti-His probe antibody (lower panel). The position of sctPA (58- and 61-kDa) detected with the antibodies is shown.
(§1) EP activity was routinely determined using the specific substrate Gly-Asp-Asp-Asp-Asp-Lys-β-naphthylamide (GD4K-βNA) (SEQ ID NO: 6) (Sigma) according to the method of Mikhailova and Rumsh (Mikhailova et al., FEBS Lett., 442:226-230 (1999)). Enzyme activity for various 4-methylcoumaryl-7-amide (MCA)-containing peptide substrates was determined by the method of Barrett (Barrett et al., J., Biochem. J., 187:909-912 (1980)). For kinetic studies, initial velocities, extrapolated from the plot of product versus time, were transformed into double-reciprocal plots (Lineweaver et al., J. Am. Chem. Soc., 56:658-663 (1934)). The maximum velocities (Vmax) and Km and kcat values were obtained from the intercepts of these plots. For all experiments, the results of at least three separate determinations are shown.
Next, a 35.5-kDa protein of human kallikrein 8 (hK8) in the same E. coli expression system was synthesized. Digestion with Medaka wild-type and mutant EP proteases generated 31.5-kDa active hK8 by cleaving the D4K sequence (SEQ ID NO: 1) (FIG. 4B, Top). […] The EP protease-treated samples were directly assayed for hK8 activity using Pro-Phe-Arg-MCA, a good synthetic peptide substrate of hK8 (Rajapakse et al., FEBS Lett., 579:6879-6884 (2005)). […] The substrate Boc-Glu(OBzl)-Ala-Arg-MCA, which is slightly cleaved by active hK8, was rapidly hydrolyzed with the samples treated with mammalian, but not Medaka, EP proteases (FIG. 4B, Bottom).

Another data set relates to GD4K-βNA. The experiment in a line: EP activity and kinetic study with specific substrate GD4K-βNA. The following applies: for Km / kcat: substrate GD4K-βna. The method, then: (A) Active recombinant EP proteases were assayed using a GD4K-βNA (SEQ ID NO: 6) substrate as a substrate. Bovine (Nvg), bovine EP protease available from Novagen; Bovine (Neb), bovine EP protease available from NEB. (B) Active recombinant EP proteases were assayed using various synthetic peptide substrates. (C) Active EP proteases were analyzed by gelatin zymography. (D) Fibronectin (4 μg) was incubated with active EPs (100 ng) at 37° C. for 12 h. (E) Laminin ((10 μg) was incubated with active recombinant EPs (100 ng) at 37° C. for 12 h. (F) Two μg of the control protein containing the D4K site (SEQ ID NO: 1) was incubated with active recombinant EPs (100 ng) at 37° C. for 1 h.
(A) The purity of purified recombinant Medaka EP-1 and EP-2 protease was assessed by SDS-PAGE. Lane 1, Medaka EP fusion protein; lane 2, Medaka EP protease treated with immobilized trypsin; lane 3, Medaka EP protease purified using a resource Q column. (B) The enzyme activities of EP proteases were determined at various pHs using GD4K-βNA (SEQ ID NO: 6) as a substrate. (C) Recombinant Medaka trypsinogen was incubated at 37° C. with EPs for 15, 30 and 45 min. After incubation, samples were analyzed by SDS-PAGE and visualized by CBB staining (upper panel). The relative amount of the active form of Medaka trypsin at each time point were calculated based on the results shown in the upper panel (lower panel). The results are presented as the means (±SD) of three separate experiments.
as §1

The test system of data set [1] is recombinant Medaka trypsinogen. Description: Activation of recombinant Medaka trypsinogen, SDS-PAGE. The conditions noted are these: 37° C., 15, 30 and 45 min.
For data set [2], the system named is GD4K-βNA and the three MCA-containing substrates. The experiment in a line: Specific activities of wild-type and mutant EP protease using synthetic peptide substrates (FIG. 3A). On the procedure:
(A) The specific activities of wild-type (EP-1) and mutant EP protease were determined using synthetic peptide substrates. (B) High-molecular-weight (HMW) kininogen (5 μg) was incubated with active EP proteases (100 ng) at 37° C. for 2 h and analyzed by SDS-PAGE. (C) Fibrinogen (10 μg) was incubated with active EP proteases (100 ng) at 37° C. for 12 h and analyzed by SDS-PAGE.
as §1

Substitutions are numbered along the chain they refer to. In names and notes the source's numbering stands.

B1: Bovine (Neb): bovine EP protease available from NEB (protein)
chain: IVGGSDSREGAWPWVVALYFDDQQVCGASLVSRDWLVSAAHCVYGRNMEPSKWKAVLGLHMASNLTSPQIETRLIDQIVINPHYNKRRKNNDIAMMHLEMKVNYTDYIQPICLPEENQVFPPGRICSIAGWGALIYQGSTADVLQEADVPLLSNEKCQQQMPEYNITENMVCAGYEAGGVDSCQGDSGGPLMCQENNRWLLAGVTSFGYQCALPNRPGVYARVPRFTEWIQSFLH
Broadly, the Km is the concentration of substrate that gives half-maximal velocity. The term kcat denotes the maximal rate divided by the concentration of active sites. As for B1, the “enzyme activity of the EP protease itself with Pro-Phe-Arg-MCA” value (“enzyme activity … with Pro-Phe-Arg-MCA” for short) in the data set with Pro-Phe-Arg-MCA is “considerable enzyme activities were detected”. In addition, in the data set with GD4K-βNA, the Km amounted to 500 µM and the kcat amounted to 25 s⁻¹.

B2: Bovine (Nvg): bovine EP protease available from Novagen (protein)
chain: B1 chain
B2: the “Pro-Phe-Arg-MCA-hydrolyzing activity of hK8 fusion protein samples treated with EP protease” value in the data set with Pro-Phe-Arg-MCA was “very low activity”. In the data set on GD4K-βNA, the Km was 800 µM and the turnover number (kcat) came out at 12.8 s⁻¹.

B3: K63R: Medaka EP-1 protease mutant, substitution K63R (protein)
chain: CGQRQVYNSKENNGVPRVVGGVNAEKGAWPWMVSLHWRGRHGCGASLIGRDWLLTAAHCVYGRNTHLQYWSAVLGLHAQSSMNSQEVQIRQVDRIIINKNYNRRTKEADIAMMHLQQPVNFTEWVLPVCLASEDQHFPAGRRCFIAGWGRDAEGGSLPDILQEAEVPLVDQDECQRLLPEYTFTSSMLCAGYPEGGVDSCQGDSGGPLMCLEDARWTLIGVTSFGVGCGRPERPGAYARVSAFTSWIAETRRSSFSDLD
Regarding B3, the “enzyme activity … with Pro-Phe-Arg-MCA” value in the data set on Pro-Phe-Arg-MCA is reported as “none of the Medaka EP proteases (wild-type EP-1, K63R, E173A, or E193A) showed any significant enzyme activity”. For the same molecule, in data set [1], the “conversion of recombinant Medaka trypsinogen to active trypsin” value is on record as “converted to trypsin as fast as the wild type enzyme”. Moreover, the “enzyme activity for synthetic peptide substrates compared with the wild-type enzyme” value in data set [2] is reported as “reduced enzyme activity for synthetic peptide substrates”. In the data set on GD4K-βNA, the Km came out at 200 µM and the kcat amounted to 3.5 s⁻¹.

B4: F144S: Medaka EP-1 protease mutant, substitution F144S (protein)
chain: B3 chain with R63K, F144S
Take B4: the “enzyme activity for synthetic peptide substrates compared with the wild-type enzyme” value in data set [2] was “reduced enzyme activity for synthetic peptide substrates”.

B5: E173K: Medaka EP-1 protease mutant, substitution E173K (protein)
chain: B3 chain with R63K, E173K
As for B5, the “enzyme activity for synthetic peptide substrates compared with the wild-type enzyme” value in data set [2] was “reduced enzyme activity for synthetic peptide substrates”.

B6: P193E: Medaka EP-1 protease mutant, substitution P193E (protein)
chain: B3 chain with R63K, P193E
With B6, the “enzyme activity … with Pro-Phe-Arg-MCA” value in the data set with Pro-Phe-Arg-MCA is “none of the Medaka EP proteases (wild-type EP-1, K63R, E173A, or E193A) showed any significant enzyme activity”. Also, the “enzyme activity for synthetic peptide substrates compared with the wild-type enzyme” value in data set [2] is “reduced enzyme activity for synthetic peptide substrates”. Also, in the data set on GD4K-βNA, the Km came out at 400 µM and the kcat was 4.83 s⁻¹.

B7: F144A: Medaka EP-1 protease mutant, substitution F144A (protein)
chain: B3 chain with R63K, F144A
B7: the “enzyme activity for synthetic peptide substrates compared with the wild-type enzyme” value in data set [2] is listed as “at an elevated rate when compared with the wild-type enzyme”.

B8: T105E: Medaka EP-1 protease mutant, substitution T105E (protein)
chain: B3 chain with R63K, T105E
Take B8: the “enzyme activity for synthetic peptide substrates compared with the wild-type enzyme” value in data set [2] is “reduced enzyme activity for synthetic peptide substrates”. In addition, in the data set with GD4K-βNA, the Km stood at 400 µM and the turnover number (kcat) came to 4.33 s⁻¹.

B9: EP-2: recombinant serine protease domain of Medaka enteropeptidase-2 (AB272105) (protein)
chain: MKRRLTNLEVLLTVTTSLFAVCCVCLIVVSCIGLKPEGAAEPVQLIGQMVITAGAAFSEELRNSSSHLFKSLAFDVQQLVSDAFGASELRLLYRSFRVLYFRPGSIAVTFDLEFNQQIDLNEVKQQLGEGLQQIEDGALVIDVDSIQITEKPSSTTPEPTSTTGHITTETMPITGHTTPAATPTAASCPPDHSLCWDRSTCVLTDVLCDGVSDCPDASDENSSRCATTCDGQFVLGGPNGTFRSSETETYRNNSNCRWIIRMDGGLSVQVNFHHFETEEYSDVLKLYEGVGPHKQLAAELSGPSPPGTVLLLNNQVTVEFTSDGVNDLSGFRASYVAVNTSSLSNQEKLSCSFDQGFCFWRQLQDSFDTWIRTNVPTFPPLTGPNFDHTFGNSSGFYIVTSLSPGQWLKSFVINSLPLAPSSHPTCLSFWYHMFGEDVYRLRVLLRPSQPELTEVVLFHKEGNFGDNWNYAQITLNLSTESTVVFEAQKEGGNQNDIALDDISLRSEGCGPAPPEPTNVPLPTTAAPIPPDCGGPFDLWEPNSTFTSPNYPQSYGDGAECLWTLHAEKGQNIQLHFLDFDVEATYDVVEVRDGAGLNSTLLAVLSGSDGPTRDLYSTDNQMTVWFYTDSGGFGRGFRANFTSGVNLGSQAPCTNGQFQCQTGDCIHGDRQCDGVADCPDGYDEADCVALQVNGSHRLHFLLLRSLLTVCADTWDSELSDFTCQYLGYRSGEESLQSVLPQDAAFAVVTVSSNGTLETQVRETCSSGEVISLNCSNQPCGQRQVYNHGDQSENSKENNGVPRVVGGVNAEKGAWPWMVSLHWRGRHGCGASLIGRDWLLTAAHCVYGKNTHLQYWSAVLGLHAQSSMNSQEVQIRQVDRIIINKNYNRRTKEADIAMMHLQQPVNFTEWVLPVCLASEGQHFPAGRRCFIAGWGRDAEGGSLPDILQEAEVPLVDQDECQRLLPEYTFTSSMLCAGYPEGGVDSCQGDSGGPLMCLEDARWTLIGVTSFGVGCGRPERPGAYARVSAFASWIAETRRSSFSDLD
modifications: Oryzias latipes
Consider B9, for which the “pH of maximal activity for GD4K-βNA” value in the data set with GD4K-βNA (serine protease domain, FIG. 8B) is given as 8.

These data come from patent US8013137B2, “Modified enteropeptidase protein” (National University Corporation Hokkaido University, priority 2006, dated 2011).
